# Measurements as given in patent US7053179 (WHITEHEAD INSTITUTE FOR BIOMEDICAL RESEARCH, dated 2006).
# Target: gp160 (precursor protein to gp120/gp41) expressed on CHO cells (HIV (strain ))
# Assay: cell-based or functional assay
binder,measurement,value
GGHTTWMEWDREINNYTSLIHSLIEESQNQQEKNEQELLGGHHHHHH [His-tagged C-peptide C37-H6],IC50 in the cell-cell fusion assay,~1 nM
